Laboratory results taken from the supplement of paper PMC10567573.

B1: ZNF8 (parent)
chain: RTHTGEKPYTCSVCGKSFSRTTCL
B2: SPATS1 (parent)
chain: GRKKYDIDPRNGIPKLTPGDNPYM

Variants of: B1
Assay: protein stability index of a GFP-peptide fusion (GPS, HEK-293T) (PSI 1-6); higher = more stable
Conditions: c terminus: a fixed tail appended
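Note: lentivirally expressed fusions sorted by FACS into six bins by GFP to DsRed ratio, PSI derived from sequencing read proportions per bin multiplied by bin number.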

Protein stability index, by site and new letter:
T4: E 3.43 | A 2.1 | P 2.22 | L 2.18 | Q 2.31 | D 2.49 | N 3.12 | K 3.02 | Y 2.27 | G 2.44 | W 1.83 | I 2.13 | S 2.77 | M 2.16 | V 1.93 | R 2.66 | C 2.32 | H 2.99 | F 1.69
R1: I 2.59 | D 2.85 | S 2.34 | Q 2.33 | K 2.24 | T 3.04 | A 2.43 | L 1.94 | E 3.13 | F 2.22 | V 3.18 | H 2.85 | M 2.61 | C 4.33 | Y 2.51 | P 2.64 | G 3 | N 2.6
K7: C 2.72 | F 2.5 | D 2.17 | N 2.42 | E 2.36 | G 3.25 | P 2.96 | W 2.31 | I 2.15 | Y 2.36 | L 2.72 | R 2.49 | T 2.49 | H 2.93 | Q 2.08 | A 2.35 | M 2.29 | S 2.47 | V 2.44
T2: Q 2.66 | V 2.55 | F 2.69 | G 2.52 | W 2.2 | E 2.85 | Y 2.07 | R 2.19 | A 2.32 | D 2.93 | H 2.52 | M 2.39 | N 2.49 | C 3.48 | L 2.1 | K 2.76 | P 2.2 | I 1.86
P8: I 3.05 | A 3.27 | E 2.95 | L 3.12 | M 2.62 | F 2.25 | K 2.04 | C 2.81 | H 2.63 | G 2.9 | D 2.78
E6: G 2.26 | R 1.92 | A 2.31 | Y 2.11 | W 2.06 | S 1.92 | L 2.1 | T 2.08 | P 2.11 | H 2.48 | Q 2.06 | D 2.9 | N 1.96 | M 2.19 | V 2.04 | C 2.28 | F 2.11 | K 2.53 | I 2.75
H3: G 2.86 | Y 2.27 | D 2.82 | L 1.88 | C 2.77 | A 1.86 | R 2.15 | M 2.37 | K 2.05 | F 2.08 | E 2.72 | I 2.21 | Q 2.2 | V 2.82 | N 2.72 | W 1.82 | P 2.46 | S 2.66 | T 2.44
G5: P 2.4 | A 2.3 | R 2.5 | L 2.29 | Y 2.15 | E 3.25 | D 2.62 | F 2.64 | S 3.15 | T 2.4 | N 2.66 | I 3.05 | V 2.87 | W 2.74 | K 2.78 | Q 2.36 | C 2.84 | M 2.48 | H 2.25

Variants of: B2
Assay: as above
Conditions: c terminus: a fixed tail appended

Protein stability index of substitutions, site by site:
P14: N 3.55 | G 3.38 | H 3.51 | R 2.99 | M 3.05 | Y 3.03 | D 3.66
K3: W 2.91 | C 2.29 | P 3.29 | V 3.67 | F 2.83 | Y 2.77 | S 3.25 | Q 3.8
N21: P 3.54 | V 3.14 | S 3.72 | E 4.6 | W 2.63
N11: V 3.28 | E 3.82 | I 3.22 | H 3.54 | M 3.17 | C 2.77
D8: L 3.16 | G 2.93 | W 2.68 | H 2.82 | S 3.33 | Q 3.83 | K 3.14
G12: W 2.83 | R 3.42 | Y 2.8 | E 3.97 | T 3.22 | M 3.08 | P 3.9 | D 3.3 | A 3.66 | S 3.57
T17: M 3.02 | K 3.57 | Y 2.89 | E 4.33 | D 3.32 | P 3.23 | R 2.95 | S 4.08 | L 3.31 | Q 4.21 | I 3.19
R10: L 3.53 | I 3.57 | Q 4.14 | S 3.65 | K 3.92 | G 3.68 | D 4.41 | W 2.56 | N 3.23
L16: G 4 | V 4 | E 4.32 | M 3.67 | F 3.11 | S 3.67 | T 3.98
I7: A 3.53 | T 3.75 | L 3.39 | Y 3.45 | P 3.71 | V 3.83 | H 3.81 | N 3.86 | Q 4.17 | F 3.11
P22: V 3.42 | Y 3.44 | C 3.34 | D 3.91 | I 3.64
P9: N 3.49 | E 4.19 | D 3.99 | A 3.44 | W 2.52 | G 3.52 | Q 3.67 | S 3.85
I13: Y 2.81 | M 3.36 | R 3.58 | D 4.92 | A 4.14 | K 3.9 | G 3.78 | L 3.64
K15: S 3.69 | I 3.69 | A 3.64 | Y 2.96 | V 3.29 | E 4.33
R2: G 3.39 | I 3.25 | K 3.61 | Y 3.15 | W 2.73 | H 3.85 | V 3.73 | S 3.66 | C 3.3 | T 3.15 | P 3.73 | E 4.15 | Q 3.59
G19: M 2.81 | H 3.34 | K 3.31 | F 2.63 | S 3.59 | R 3.35
D20: M 2.46 | R 3.74 | H 3.06 | W 2.41 | L 2.71 | C 3.47 | P 3.2
Y23: N 4.43 | H 3.93 | C 3.26 | G 4.04 | L 4.48 | I 3.72
P18: N 4.09 | V 3.34 | K 3.62 | H 3.42 | R 3.24 | A 3.86 | C 3.38 | M 3.18
K4: Q 3.23 | M 3.5 | I 3.33 | V 3.29 | L 2.91 | P 3.52 | T 3.48 | W 3.03 | N 3.88 | S 3.83 | F 2.62
M24: N 4.11 | E 4.56 | K 4.03 | R 3.59 | S 4.21 | F 3.1 | T 4.04 | V 4.22 | A 4.21 | D 4.4
G1: N 3.54 | P 3.51 | I 2.66 | R 3.93 | W 2.78 | H 3.25 | D 3.85
D6: I 2.57 | K 3.33 | L 2.84 | S 3.4 | R 3.11 | P 3.49 | F 2.51 | M 3.01 | H 3.35
Y5: D 4.64 | Q 4.27 | V 4.04 | F 3.51 | N 3.93 | S 4.36 | P 3.38 | E 4.86
